In assay [1] the target is T1, ENAH EVH1 domain (monomeric, wild type) (human, UniProt Q03173 1-111 (mouse entry)).
T1 construct: ENAH residue numbers in the text count from the Met at position 25 of this entry; also called ENAH EVH1 WT; Mena EVH1 WT
Kind of assay: ITC, SUMO-peptide titrated into ENAH EVH1 domain at 25 °C. (ITC needs no label: the signal is the heat of the interaction.)
Description: (§1) ITC experiments were performed with two replicates using a VP-ITC microcalorimeter (MicroCal LLC). To prepare samples for ITC, 2.5 mL of 100 µM ENAH EVH1 domain and 1 mL of 800 µM-1.2 mM of SUMO-peptide fusions were dialyzed against 2 µL of ITC Buffer (20 mM Hepes pH 7.6, 150 mM NaCl, 1 mM TCEP) at 4° C. overnight. The concentrations of proteins were remeasured after dialysis on the day of experiment. SUMO-peptide was titrated into ENAH EVH1 domain at 25° C. Data analysis and curve fitting were performed with the Origin 7.0 software (OriginLab).

Assay [2] deals with T1, ENAH EVH1 domain (monomeric, wild type). Kind of assay: BLI, steady state; SUMO-peptide immobilised, EVH1 monomer in solution.
Description: (§2) All BLI experiments were performed with 2 replicates on an Octet Red96 instrument (ForteBio). […] The loaded tips were immersed in a solution of ENAH EVH1 domain at a relevant dilution series in BLI buffer at an orbital shake speed of 1000 rpm and run until the binding signal plateaued. ENAH-bound tips were subsequently placed into BLI buffer only for dissociation and run until the binding signal plateaued. K_D values were obtained through steady state analysis. […] The association phases were then fit to a one-phase binding model in Prism and the equilibrium steady-state binding signal values from that fit were plotted against ENAH concentration and fit to a single-site specific binding model in Prism to obtain dissociation constants. Errors reported are the standard deviation of two replicates.
The target is the same in assay [3]. Described as above. This is another data set of the same source.
Description: as §2
For assay [4], the target named is T2, ENAH EVH1 domain with Arg47 mutated to Ala (human, UniProt Q03173 1-111 (mouse entry)).
T2 construct: also called ENAH R47A; ENAH EVH1 R47A
T2 sequence (Q03173 other isoform, or with tags, fused parts or gaps limits assumed, stated change not applied): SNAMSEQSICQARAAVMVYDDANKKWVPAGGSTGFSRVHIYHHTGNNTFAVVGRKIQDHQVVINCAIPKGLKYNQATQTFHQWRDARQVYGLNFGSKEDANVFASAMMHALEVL
The assay is described as above.
Description: as §2

The target in assay [5] is T1, ENAH EVH1 domain (monomeric, wild type). Described as above. This is another data set of the same source.
Description: as §2
Assay [6] has as its target T2, ENAH EVH1 domain with Arg47 mutated to …. The assay is described as above. The source holds these as a separate data set.
Description: as §2
Assay [7] addresses T1, ENAH EVH1 domain (monomeric, wild type). Kind of assay: ITC.
Description: as §1
The target of assay [8] is T3, VASP EVH1 domain (Homo sapiens (Human), UniProt P50552 1-114).
T3 construct: VASP numbering in the text counts from the Met at position 25 of the entry
T3 sequence (P50552 other isoform, or with tags, fused parts or gaps limits assumed): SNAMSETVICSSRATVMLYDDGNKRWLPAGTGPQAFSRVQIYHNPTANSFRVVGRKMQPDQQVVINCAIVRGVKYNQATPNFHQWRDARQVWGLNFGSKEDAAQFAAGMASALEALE
Kind of assay: BLI steady state, immobilised SUMO-PCARE B, EVH1 domain in solution.

In assay [9] the target is T4, EVL EVH1 domain (wild type) (Mus musculus (Mouse), UniProt P70429 1-116).
T4 construct: EVL numbering counts from the Met at position 25 of the entry; also called WT EVL EVH1 domain
T4 sequence (P70429 other isoform, or with tags, fused parts or gaps limits assumed): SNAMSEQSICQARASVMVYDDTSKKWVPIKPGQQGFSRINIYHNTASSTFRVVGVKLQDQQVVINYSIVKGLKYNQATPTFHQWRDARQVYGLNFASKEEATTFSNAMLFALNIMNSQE
Described as above.

In assay [10] the target is T5, EVL EVH1 swapped (residue swapped) (Homo sapiens (Human), UniProt Q9UI08 1-109).
T5 construct: also called EVL swapped; residue-swapped EVL EVH1 domain
T5 sequence (Q9UI08 other isoform, or with tags, fused parts or gaps limits assumed): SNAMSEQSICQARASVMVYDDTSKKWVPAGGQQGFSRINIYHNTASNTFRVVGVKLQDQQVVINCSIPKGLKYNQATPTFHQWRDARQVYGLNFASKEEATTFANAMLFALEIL
Kind of assay: BLI, EVL swapped EVH1 domain in solution.

The target of assay [11] is T4, EVL EVH1 domain (wild type). Briefly: BLI steady state, immobilised SUMO-PCARE B, EVH1 domain in solution. The source holds these as a separate data set.
The target in assay [12] is T1, ENAH EVH1 domain (monomeric, wild type). Kind of assay: BLI, steady state; SUMO-peptide immobilised, EVH1 monomer in solution. The source holds these as a separate data set. (BLI is a label-free optical method that tracks binding on a fibre tip over time.)
Description: as §2
Assay [13] has the same target. Briefly: BLI, steady state; SUMO-peptide immobilised, EVH1 monomer in solution; Table 2 (MassTitr hit validation), not the Table 3 truncation series.
Description: as §2
Assay [14] shares this target. Kind of assay: BLI dissociation phase, immobilised SUMO-peptide, ENAH EVH1 domain in solution.
For assay [15] the target is unchanged. Kind of assay: BLI, monomeric EVH1.
For assay [16] the target is unchanged. Kind of assay: BLI.
Description: as §2
The target is the same in assay [17]. Briefly: BLI steady state, immobilised SUMO-peptide, ENAH EVH1 domain in solution.
Description: (§3) (C) Peptide binding and dissociation curves measured by BLI. Blue, orange, green, red, purple, and brown curves denote EVH1 concentrations in descending order.
as §2
The target is the same in assay [18]. Kind of assay: BLI dissociation curves.
Description: as §3, §2
In assay [19] the target is T3, VASP EVH1 domain. Kind of assay: BLI steady state, immobilised SUMO-PCARE-Dual, EVH1 domain in solution.
Description: as §3, §2
In assay [20] the target is T4, EVL EVH1 domain (wild type). The assay is described as above.
Description: as §3, §2
Assay [21] concerns the target T1, ENAH EVH1 domain (monomeric, wild type). The assay is described as above.
Description: as §3, §2

Like-named read-outs stand apart in the source and are kept apart here. Bounds are passed on as bounds.

T1 sequence (Q03173 other isoform, or with tags, fused parts or gaps limits assumed): as the sequence (Q03173 other isoform, or with tags, fused parts or gaps limits assumed, stated change not applied) above, with A50R counted along it

B1: NHSL1 36mer peptide (peptide)
peptide: MAGGLNDIFEAQKIEWHEDTGGSSHHHHHHGSGSGSDSEVNQEAKPEVKPEVKPETHINLKVSDGSSEIFFKIKKTTPLRRLMEAFAKRQGKEMDSLTFLYDGIEIQADQTPEDLDMEDNDIIEAHREQIGGSGSGADRSPFLPPPPPVTDCSQGSPLPHSPVFPPPPPEAL
modifications: biotinylated (BAP tag)
notes: Tested as a BAP-6xHis-SUMO-peptide fusion in BLI and ITC
For B1, the Kd (commonly the constant that tells how readily two partners part at equilibrium) in assay [1] amounted to 9.8 µM; in assay [2], 8.56 µM; in assay [3], 8.56 µM; in assay [4], 55.4 µM; in [5], 8.56 µM; in assay [6], 55.4 µM. Further, the “-TΔS” value in [7] is -0.28 kcal/mol. Further, in assay [7], the ΔG is -6.83 kcal/mol. The ΔH in assay [7] was -6.55 kcal/mol.

B2: PCARE 36-residue peptide (PCARE813-848) (peptide)
peptide: MAGGLNDIFEAQKIEWHEDTGGSSHHHHHHGSGSGSDSEVNQEAKPEVKPEVKPETHINLKVSDGSSEIFFKIKKTTPLRRLMEAFAKRQGKEMDSLTFLYDGIEIQADQTPEDLDMEDNDIIEAHREQIGGSGSGAAKSEELSCEMEGNLEHLPPPPMEVLMDKSFASLES
modifications: biotinylated (BAP tag)
notes: Tested in BLI as a biotinylated BAP-6xHis-SUMO-peptide fusion; also called PCARE 36-mer
For B2, the dissociation constant (Kd) amounted to 0.192 µM in [2], 0.192 µM in [5] and 0.331 µM in assay [6].

B3: Zyxin 36-mer peptide (peptide)
peptide: MAGGLNDIFEAQKIEWHEDTGGSSHHHHHHGSGSGSDSEVNQEAKPEVKPEVKPETHINLKVSDGSSEIFFKIKKTTPLRRLMEAFAKRQGKEMDSLTFLYDGIEIQADQTPEDLDMEDNDIIEAHREQIGGSGSGALGGAFPPPPPPIEESFPPAPLEEEIFPSPPPPPEE
modifications: biotinylated (BAP tag)
notes: Tested as a biotinylated BAP-6xHis-SUMO-peptide fusion
For the molecule B3, the dissociation constant (Kd) was determined as 4.79 µM in assay [2], 4.79 µM in assay [5] and 54.5 µM in assay [6].

B4: PCARE B (PCARE826-848) (peptide)
peptide: MAGGLNDIFEAQKIEWHEDTGGSSHHHHHHGSGSGSDSEVNQEAKPEVKPEVKPETHINLKVSDGSSEIFFKIKKTTPLRRLMEAFAKRQGKEMDSLTFLYDGIEIQADQTPEDLDMEDNDIIEAHREQIGGSGSGNLEHLPPPPMEVLMDKSFASLES
modifications: biotinylated (BAP tag)
For the molecule B4, the Kd in the assay with VASP EVH1 domain [8] stood at 42 µM; in assay [9], 22 µM; in [10], 0.35 µM; in assay [11], 22 µM.

B5: ABI1 36mer peptide (peptide)
peptide: MAGGLNDIFEAQKIEWHEDTGGSSHHHHHHGSGSGSDSEVNQEAKPEVKPEVKPETHINLKVSDGSSEIFFKIKKTTPLRRLMEAFAKRQGKEMDSLTFLYDGIEIQADQTPEDLDMEDNDIIEAHREQIGGSGSGFDDFPPPPPPPPVDYEDEEAAVVQYNDPYADGDPAW
modifications: biotinylated (BAP tag)
On to B5, for which the Kd in assay [12] was determined as 4.01 µM; in assay [13], 2.44 µM.

B6: LPP 36mer peptide (peptide)
peptide: MAGGLNDIFEAQKIEWHEDTGGSSHHHHHHGSGSGSDSEVNQEAKPEVKPEVKPETHINLKVSDGSSEIFFKIKKTTPLRRLMEAFAKRQGKEMDSLTFLYDGIEIQADQTPEDLDMEDNDIIEAHREQIGGSGSGKQPGGEGDFLPPPPPPLDDSSALPSISGNFPPPPPL
modifications: biotinylated (BAP tag)
notes: as for B1
Consider B6, for which the dissociation constant (Kd) in assay [1] was determined as 8.13 µM; in assay [2], 4.03 µM; in [3], 4.03 µM; in [4] it was 61.9 µM; in assay [5], 4.03 µM; in [6], 61.9 µM. Further, the dissociation rate constant (koff) (usually the rate constant with which the complex falls apart) in assay [14] was 1.8 s⁻¹. Also, in [7], the “-TΔS” value was -0.504 kcal/mol. The molecule also came in with a ΔG in assay [7] of -6.94 kcal/mol. The molecule further showed a ΔH in assay [7] of -6.44 kcal/mol.

B7: TENM1 36-mer peptide (peptide)
peptide: MAGGLNDIFEAQKIEWHEDTGGSSHHHHHHGSGSGSDSEVNQEAKPEVKPEVKPETHINLKVSDGSSEIFFKIKKTTPLRRLMEAFAKRQGKEMDSLTFLYDGIEIQADQTPEDLDMEDNDIIEAHREQIGGSGSGGSTQDVQSSPHNQFTFRPLPPPPPPPHACTCARKPP
modifications: biotinylated (BAP tag)
notes: Tested as a biotinylated BAP-6xHis-SUMO-peptide fusion; The text calls it TEN1; it contains both an FP4 and a CXC motif; also called TEN1
With B7, the dissociation constant (Kd) was 62.9 µM in assay [2] and above 60 µM in assay [15].

B8: ABI1-LPP fusion peptide (designed binder)
peptide: MAGGLNDIFEAQKIEWHEDTGGSSHHHHHHGSGSGSDSEVNQEAKPEVKPEVKPETHINLKVSDGSSEIFFKIKKTTPLRRLMEAFAKRQGKEMDSLTFLYDGIEIQADQTPEDLDMEDNDIIEAHREQIGGSGSGFDDFPPPPPPPPVDYEDLPSISGNFPPPPPL
modifications: biotinylated (BAP tag)
notes: Engineered peptide, tested as a SUMO fusion in BLI
B8 yielded a koff in assay [14] of 0.33 s⁻¹. In assay [16], this molecule had a Kd of 0.76 µM.

B9: SUMO-ActA (ActA 36-mer peptide fused to SUMO) (peptide)
peptide: MAGGLNDIFEAQKIEWHEDTGGSSHHHHHHGSGSGSDSEVNQEAKPEVKPEVKPETHINLKVSDGSSEIFFKIKKTTPLRRLMEAFAKRQGKEMDSLTFLYDGIEIQADQTPEDLDMEDNDIIEAHREQIGGGFNAPATSEPSSFEFPPPPTEDELEIIRETASSLDS
modifications: biotinylated (BAP tag)
notes: Control peptide used in BLI and ITC; also called ActA peptide
For the molecule B9, the equilibrium dissociation constant (Kd) was 7.41 µM in [1], 5.21 µM in assay [2], 5.21 µM in [5] and 8.02 µM in [6]. Further, the “-TΔS” value in assay [7] is -5.21 kcal/mol. In [7], this molecule showed a ΔG of -6.99 kcal/mol. This molecule had a ΔH in [7] of -1.78 kcal/mol.

B10: PCARE-Dual peptide (designed binder)
peptide: MAGGLNDIFEAQKIEWHEDTGGSSHHHHHHGSGSGSDSEVNQEAKPEVKPEVKPETHINLKVSDGSSEIFFKIKKTTPLRRLMEAFAKRQGKEMDSLTFLYDGIEIQADQTPEDLDMEDNDIIEAHREQIGGSGSGNLEHLPPPPMEVLMDKSFASLESGSGSPPPPPF
modifications: biotinylated (BAP tag)
notes: as for B8
Turning to B10, the Kd in assay [17] stood at 0.048 µM; with VASP EVH1 domain [19], 28 µM; in [20], 21 µM; in assay [21], 0.048 µM; in assay [16] it was 0.05 µM. In addition, the koff in assay [14] worked out at 0.045 s⁻¹. Also, the “fold slower dissociation than dual-motif peptide LPP” value in assay [18] was around 100 fold. In addition, in assay [16], the “fold tighter binding than PCARE B” value is around 7 fold.

These data come from patent US12552834 (MIT, dated 2026).
